Here are results for three substances from publication PMC4660213, “Identification and characterization of multiple rubisco activases in chemoautotrophic bacteria” (Nature Communications, 2015).

In test [1] the target is Acidithiobacillus ferrooxidans CbbQ2 (Acidithiobacillus ferrooxidans ATCC 23270) (UniProt B7J5E4). The test is described as follows: SEC + other: glycerol gradient sedimentation; combined Stokes radius/sedimentation analysis: Stokes radius from gel filtration, Svedberg coefficient from 5–30% glycerol gradients in buffer A (1 mg/ml, 35,000 r.p.m., 16 h, 4 °C); M=4,205 (SRs). In general terms: SEC sorts molecules by how far they enter the pores of the column.

For test [2] the target is unchanged.
For test [3] the target is unchanged. The test is described as follows: quantitative densitometry of SDS-PAGE; Coomassie-stained SDS–PAGE of the purified complexes (4 µg per lane), assuming equal binding of the dye.
The target in test [4] is AfM with E75 mutated to alanine (Acidithiobacillus ferrooxidans ATCC 23270).
Test [5] has as its target Acidithiobacillus ferrooxidans form II rubisco (Acidithiobacillus ferrooxidans ATCC 23270) (UniProt B7J5E3).
The target of test [6] is Acidithiobacillus ferrooxidans form I rubisco (L8S8) (Acidithiobacillus ferrooxidans ATCC 23270) (UniProt B7JA24).

Consider “C-terminally truncated CbbO2 (residues 1–444) (domain or fragment)”, for which, in test [1], the stoichiometry N (CbbO fragment per CbbQ hexamer) came to 1. The substance further had a basal ATPase activity of the Q2O2ΔC444 complex (min^−1 protomer CbbQ^−1) in test [2] of less than 1. For the same substance, the stoichiometry N (CbbO fragments per 6 CbbQ subunits) in test [3] worked out at 3.5.

In test [4], “CbbQ2-CbbO2 hetero-oligomer (CbbQ6CbbO1) (complex)” had a rubisco activase activity of Q2O2 on AfM with E75 mutated to alanine of 80 % reduction. The substance also came in with a stimulation of Q2O2 ATPase activity (0.27 µM oligomer) by saturating concentrations of stably inhibited AfM (ER, ECMC) in test [5] of 20 fold.

As to “CbbQ1-CbbO1 hetero-oligomer (CbbQ6CbbO1) (complex)”, the stimulation of Q1O1 ATPase activity (0.27 µM oligomer) by saturating concentrations of stably inhibited AfLS (ER, ECMC) in test [6] was found to be 2 fold.
